Laboratory results reported in the supplement of paper PMC9170038.

System: MS2 coat protein
Assay: apparent KD of MS2 coat protein; designed switch direction (-1 OFF switch, 1 ON switch): -1; higher = weaker reporter binding
Outline: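 The buffer was Tris-HCl pH 7.5 with KCl, MgCl2, BSA, DTT, tRNA and Tween-20. In it, SNAP-549-labelled MS2 coat protein was titrated in doubling steps from 0.7 or 1.5 nM to 3 µM over chip-bound RNA switches transcribed by stalled E. coli RNA polymerase on Illumina chips. Apparent KD is the per-design median over clusters of curve fits to normalised fluorescence.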

[1] = Eterna round: R95, input ligand: microRNA oligo, concentration not stated
[2] = input ligand: microRNA oligo, concentration not stated
[3] = Eterna round: R95, input ligand: FMN 200 uM
[4] = Eterna round: R95, input ligand: none

GGUCGUCAAGUCAGGAUAUCGUAUAGUCGAUGUAACGAGAAGGGACAUGAGGAUCACCCAUGUCGUCUCAUCAG [Ex4 #25] (Eterna round: R97, puzzle: Brourd's mod of Exclusion 4)
apparent KD of MS2 coat protein (input ligand: FMN 200 uM): 18.2 nM | apparent KD of MS2 coat protein (input ligand: none): 17.7 nM

UUUUAACAUGAGGAUCACCCAUGUGAGGAUAUCGAAAUUUAUAUUUAUAUUAAUUAAACGAGAAGGCACAUUUU [JMF 83] (puzzle: Exclusion 1)
apparent KD of MS2 coat protein [1]: 74 nM

CCUCCGGCAGGAUAUGCAGGGAGGAUGUUGUGUUAUUGGUAACAUGAGGAUCACCCAUGUAGAAGGGCCAAUAC [Eternabot (L2) Solution 42] (Eterna round: R97, puzzle: Exclusion 2)
apparent KD of MS2 coat protein (input ligand: FMN 200 uM): 17.9 nM | apparent KD of MS2 coat protein (input ligand: none): 15 nM

UCGCUGCGAGGAUAUACAUGAGGAUCACCCAUGUGCGGGUCCGGGUCUUCGUCCAUUAGUAGAAGGCGCAGUGA [JL Laongeedie mod 4] (Eterna round: R96, puzzle: Exclusion 3)
apparent KD of MS2 coat protein (input ligand: FMN 200 uM): 705 nM | apparent KD of MS2 coat protein [2]: 112 nM | apparent KD of MS2 coat protein (input ligand: none): 119 nM

GGUACUCAAAGAGUACCAAUACGAACAUGAGGAUCACCCAUGUAGGAUAUGCUACUCAAAGAGUAGCAGAAGGACAUGUACCUU [Far Half Aptamer v6] (Eterna round: R96, puzzle: Exclusion NG 3)
apparent KD of MS2 coat protein (input ligand: FMN 200 uM): 227 nM | apparent KD of MS2 coat protein [2]: 19.7 nM | apparent KD of MS2 coat protein (input ligand: none): 29.5 nM

CCACUGUCAGGAUAUCGUGCAUAACGUUUACAAUUUAUGUGCGAGAAGGGACAUGAGGAUCACCCAUGUAAACG [Omei Ex4 A28PK3] (Eterna round: R97, puzzle: Exclusion 4)
apparent KD of MS2 coat protein (input ligand: FMN 200 uM): 227 nM | apparent KD of MS2 coat protein (input ligand: none): 203 nM

AACUGACAUGAGGAUCACCCAUGUCAGGAUAUGCUUCAUAAAAACAAACAAAAAUGAUGCAGAAGGGACAUGGA [Design 30 :P Sub-opt 6] (Eterna round: R96, puzzle: Exclusion 1)
apparent KD of MS2 coat protein [2]: 14.3 nM

ACUGGAGCAGGAUAUACAUAACGUGCUUCGGCACGAGAUCUACAUGAGGAUCACCCAUGUAGAAGGGCUCCAGU [E2/10-D1] (Eterna round: R97, puzzle: Exclusion 2)
apparent KD of MS2 coat protein (input ligand: FMN 200 uM): 28.3 nM | apparent KD of MS2 coat protein (input ligand: none): 13.3 nM

ACAUUACAUGAGGAUCACCCAUGUGAGGAUAUGGAGCGAUAGUGUCCUGUCGCGUACACCAGAAGGCGCGGGUG [1st #49] (Eterna round: R97, puzzle: Exclusion 1)
apparent KD of MS2 coat protein (input ligand: FMN 200 uM): 242 nM | apparent KD of MS2 coat protein (input ligand: none): 271 nM

AAAUGUUGUAAGGAUAUUGAAUAAGAAAACUUACGAGAAGGUGCGACAUGAGGAUCACCCAUGUUCCCAAAGGG [Alacar 2] (Eterna round: R97, puzzle: Exclusion 6)
apparent KD of MS2 coat protein (input ligand: FMN 200 uM): 31.5 nM | apparent KD of MS2 coat protein (input ligand: none): 30.4 nM

AAGUAGGGAGGAUAUACAUAGAUACAGAUUCAUGUAGAACUACAUGAGGAUCACCCAUGUAGAAGGCCCUAAUA [AJ 37] (Eterna round: R96, puzzle: Exclusion 2)
apparent KD of MS2 coat protein (input ligand: FMN 200 uM): 255 nM | apparent KD of MS2 coat protein [2]: 25.1 nM | apparent KD of MS2 coat protein (input ligand: none): 27.9 nM

AUAAUGUCAGGAUAUCAGACGUACAGCUGCGGCUGUACGUCUGAGAAGGGACAUGAGGAUCACCCAUGUGAUUA [E4/3-A3] (Eterna round: R97, puzzle: Exclusion 4)
apparent KD of MS2 coat protein (input ligand: FMN 200 uM): 124 nM | apparent KD of MS2 coat protein (input ligand: none): 1460 nM

AGUACUAACACGGAUGUGUUAGUACAAUAAGCUUGUGAAACAUGAGGAUCACCCAUGUCCUCAUAAGCUCGUCUUAU [salish99_TOv2_r3_067] (puzzle: Sensor v3, turn-off variant 2)
apparent KD of MS2 coat protein [3]: 15.5 nM | apparent KD of MS2 coat protein [1]: 677 nM | apparent KD of MS2 coat protein [4]: 14.7 nM

CGAUGCACGAGUCCACAUGAGGAUCACCCAUGUCGUGUUAGCGAGGAUAUCGGAGACACAUAGUAUGAGAAGGCGCGAACCUGA [Ex NG3 #21] (Eterna round: R96, puzzle: Exclusion NG 3)
apparent KD of MS2 coat protein (input ligand: FMN 200 uM): 16.4 nM | apparent KD of MS2 coat protein [2]: 11.2 nM | apparent KD of MS2 coat protein (input ligand: none): 13.4 nM

CGAAUGUCAGGAUAUCGUGCAUACAACGAAAGUUCUAUGUGCGAGAAGGGACAUGAGGAUCACCCAUGUCUUCG [Omei Ex4 A14] (Eterna round: R97, puzzle: Exclusion 4)
apparent KD of MS2 coat protein (input ligand: FMN 200 uM): 75.6 nM | apparent KD of MS2 coat protein (input ligand: none): 27.1 nM

AAUUUGCAAGCGAGAUCCCACAUGAGGAUCACCCAUGUGCUCGUCUUAUAAGGUACUGUGACAAUAGUCACGGUACC [Mat - Sensor, turn-off var - Eli Mod - D94] (Eterna round: R97, puzzle: Sensor, turn-off variant 1)
apparent KD of MS2 coat protein (input ligand: FMN 200 uM): 16.7 nM | apparent KD of MS2 coat protein (input ligand: none): 20.8 nM

CAGUACUGAGGAUAUACAUGAGGAUCACCCAUGUGUUCCAGCUAGGAUACUAGCAAAAGUAGAAGGCAGUACUG [salish99_ex3_r3_095x] (puzzle: Exclusion 3)
apparent KD of MS2 coat protein [3]: 484 nM | apparent KD of MS2 coat protein [1]: 30.4 nM | apparent KD of MS2 coat protein [4]: 24 nM

UACAUGAGGAUCACCCAUGUUUUGUCGUGUAUGGUAUUUAUCUAGGAUAUCAUUUUAUUUAGUUAUGAGAAGGAGAAUAUUAAU [JMF's solution 79] (Eterna round: R96, puzzle: Exclusion NG 3)
apparent KD of MS2 coat protein [2]: 36.1 nM

UUUUAGCAAGCGAGAUCCCACAUGAGGAUCACCCAUGUGCAUCCAGAAUUACUUUUUGCAUAAGCUCGUCUUAUAUA [JR_STOV1_v2_Sub080] (Eterna round: R97, puzzle: Sensor, turn-off variant 1)
apparent KD of MS2 coat protein (input ligand: FMN 200 uM): 58.8 nM | apparent KD of MS2 coat protein (input ligand: none): 64.5 nM

GUCAUGAUUGUGAGGAUAUUUCAUAGAUAGAUGUUAGAGAAGGUACAUGAGGAUCACCCAUGUGUGAUCAGACA [Brourd's EX4 #74] (Eterna round: R97, puzzle: Brourd's mod of Exclusion 4)
apparent KD of MS2 coat protein (input ligand: FMN 200 uM): 336 nM | apparent KD of MS2 coat protein (input ligand: none): 478 nM

UAAGAGUGAGGAUAUACGUCGCUGGUCUGGAUGGACGCAUGACAUGAGGAUCACCCAUGUAGAAGGCACAAAAC [Enxela Mod 11 - Jieux - Exclusion 2] (Eterna round: R97, puzzle: Exclusion 2)
apparent KD of MS2 coat protein (input ligand: FMN 200 uM): 153 nM | apparent KD of MS2 coat protein (input ligand: none): 35 nM

ACUGUUUGAUUCCUCUUAUACAUGAGGAUCACCCAUGUUAUCGAGGAUAUGCAUUAGAGUGUUUAGCAGAAGGCGAUGUAAUUG [JR_ExcNG3_Sub033] (Eterna round: R96, puzzle: Exclusion NG 3)
apparent KD of MS2 coat protein (input ligand: FMN 200 uM): 112 nM | apparent KD of MS2 coat protein [2]: 8.68 nM | apparent KD of MS2 coat protein (input ligand: none): 17.9 nM

UUCUCGACAUGAGGAUCACCCAUGUAGUGGGAGAAAACUGGUUAGGAUAUAAAAUAGUACACCGUUUAGAAGGGACCUAUCCUC [Eternabot solution 4] (Eterna round: R96, puzzle: Exclusion NG 3)
apparent KD of MS2 coat protein (input ligand: FMN 200 uM): 79.2 nM | apparent KD of MS2 coat protein [2]: 45.7 nM | apparent KD of MS2 coat protein (input ligand: none): 72.3 nM

AAAAUGUGAGGAUAUCAGGUGUGCUAGCGAACUGGUACAUCUGAGAAGGCACAUGAGGAUCACCCAUGUUCCUU [Mat - Exclusion 4 - Mod of JL - D51] (puzzle: Exclusion 4)
apparent KD of MS2 coat protein [1]: 16.2 nM

GGGCAAUUAGGAUAUACAUGAGGAUCACCCAUGUGGAAGCCCGGACAGGUAAUCCACUGUAGAAGGGAUUGCCA [Anareor] (puzzle: Exclusion 3)
apparent KD of MS2 coat protein [1]: 10.7 nM

CAGAGCUUUUACUCGUCUUACAUGAGGAUCACCCAUGUCUCCUAGUGGGUAAAAUAUUAAGAAGAAAUUCUUAAUAA [jun14#1] (Eterna round: R97, puzzle: Sensor, turn-off variant 1)
apparent KD of MS2 coat protein (input ligand: FMN 200 uM): 125 nM | apparent KD of MS2 coat protein (input ligand: none): 145 nM
